Test results: patent US20200317756A1 (CERTEST BIOTEC S L, published 2020)

How the values were obtained:
[1] = molecular target: T1, DNA-Binding Protein from Starved Cells (Dps) of Campylobacter jejuni (Campylobacter jejuni, UniProt Q0P891 1-149); test: sandwich immunochromatographic strip, immobilized CL30Camp and labeled CL30Camp, Dps at 1.85 ng/mL, read by eye after 10 min
T1 construct: also called Dps of C. jejuni

[2] = molecular target: T2, DNA-Binding Protein from Starved Cells (Dps) of Campylobacter coli (Campylobacter coli); test: sandwich immunochromatographic strip, immobilized CL30Camp and labeled CL30Camp, Dps at 0.75 ng/mL, read by eye after 10 min (+/- = weak positive response)
T2 construct: also called Dps of C. coli

B1: CL30Camp monoclonal antibody (antibody, V domains shown)
VH: QVQLKQSGPGLVQPSQSLSITCTVSGFSLTSSGVHWVRQSPGKGLEWLGVIWRGGSTDYNAAFMSRLSITKDNSKSQVFFKMNSLQPDDTAIYYCAKNYYYGTSPDYFDYWGQGTTLTVSS
VL: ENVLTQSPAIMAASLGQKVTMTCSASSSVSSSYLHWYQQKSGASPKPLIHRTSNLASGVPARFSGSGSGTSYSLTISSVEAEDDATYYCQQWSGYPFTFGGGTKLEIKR
notes: also called CL30Camp/CL30Camp (immobilized/labeled pair in the test device)
- binding result [1]: binds
- binding result [2]: binds
